Measurements reported in patent publication US20120196804A1.
Read-outs that look alike come from different tables or passages of the source.

Columns and labels:
Test in all cases: cell-based or functional assay
GLP-1 receptor [1] = target: GLP-1 receptor
GLP-1 receptor [2] = target: GLP-1 receptor; remark: listed apart in the source
glucagon receptor = target: glucagon receptor

Substance: GLP-1 (peptide)
- cAMP Induction, EC50 (luciferase reporter, HEK293) (GLP-1 receptor [1]): 0.04 nM
- cAMP Induction, EC50 (luciferase reporter, HEK293) (GLP-1 receptor [2]): 0.05 nM
- cAMP Induction, EC50 (luciferase reporter, HEK293) (glucagon receptor): > 1000 nM
